This note sets out measurements from patent US20130331333A1 (HADASIT MEDICAL RESEARCH SERVICES AND DEVELOPMENT, published 2013).

Positions count from the first letter of the chain named.

The chains are these.
T1: wild-type protease-activated receptor 2 (wt hPar2) (human, UniProt P55085 37-397)
T1 construct: whole, on cells; Species read from the name hPar2
T1 sequence (looked up): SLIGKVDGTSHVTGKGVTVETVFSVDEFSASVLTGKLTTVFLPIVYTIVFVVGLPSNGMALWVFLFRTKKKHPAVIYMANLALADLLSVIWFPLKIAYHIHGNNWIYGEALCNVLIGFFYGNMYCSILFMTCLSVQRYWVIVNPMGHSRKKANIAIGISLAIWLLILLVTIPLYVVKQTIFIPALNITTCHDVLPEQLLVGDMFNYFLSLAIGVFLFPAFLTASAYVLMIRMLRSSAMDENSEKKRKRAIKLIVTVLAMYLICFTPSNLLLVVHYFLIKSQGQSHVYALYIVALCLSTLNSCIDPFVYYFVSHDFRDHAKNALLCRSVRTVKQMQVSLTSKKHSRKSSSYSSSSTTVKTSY

T2: HA-tagged wt hPar1 (human, UniProt P25116 42-425)
T2 construct: whole, on cells; Tested in lysates of transfected cells; also called HA-wt hPar1; HA-wthPar1; not shown: HA tag added downstream of the ATG start codon
T2 sequence (looked up): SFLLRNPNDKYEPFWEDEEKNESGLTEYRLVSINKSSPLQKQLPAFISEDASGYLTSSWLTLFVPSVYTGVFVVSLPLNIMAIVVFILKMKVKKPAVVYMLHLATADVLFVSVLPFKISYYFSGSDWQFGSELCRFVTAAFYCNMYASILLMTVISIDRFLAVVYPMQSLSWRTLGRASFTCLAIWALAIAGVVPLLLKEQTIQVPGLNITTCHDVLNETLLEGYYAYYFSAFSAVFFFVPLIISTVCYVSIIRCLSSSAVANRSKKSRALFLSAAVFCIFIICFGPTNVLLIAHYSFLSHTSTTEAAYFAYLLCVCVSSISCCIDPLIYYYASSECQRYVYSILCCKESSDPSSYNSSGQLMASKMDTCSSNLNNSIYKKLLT

T3: Etk/Bmx (epithelial tyrosine kinase), wild type (UniProt P51813 1-675)
T3 construct: Plasmids after Tsai et al. 2000; also called wt-Etk
T3 sequence (looked up): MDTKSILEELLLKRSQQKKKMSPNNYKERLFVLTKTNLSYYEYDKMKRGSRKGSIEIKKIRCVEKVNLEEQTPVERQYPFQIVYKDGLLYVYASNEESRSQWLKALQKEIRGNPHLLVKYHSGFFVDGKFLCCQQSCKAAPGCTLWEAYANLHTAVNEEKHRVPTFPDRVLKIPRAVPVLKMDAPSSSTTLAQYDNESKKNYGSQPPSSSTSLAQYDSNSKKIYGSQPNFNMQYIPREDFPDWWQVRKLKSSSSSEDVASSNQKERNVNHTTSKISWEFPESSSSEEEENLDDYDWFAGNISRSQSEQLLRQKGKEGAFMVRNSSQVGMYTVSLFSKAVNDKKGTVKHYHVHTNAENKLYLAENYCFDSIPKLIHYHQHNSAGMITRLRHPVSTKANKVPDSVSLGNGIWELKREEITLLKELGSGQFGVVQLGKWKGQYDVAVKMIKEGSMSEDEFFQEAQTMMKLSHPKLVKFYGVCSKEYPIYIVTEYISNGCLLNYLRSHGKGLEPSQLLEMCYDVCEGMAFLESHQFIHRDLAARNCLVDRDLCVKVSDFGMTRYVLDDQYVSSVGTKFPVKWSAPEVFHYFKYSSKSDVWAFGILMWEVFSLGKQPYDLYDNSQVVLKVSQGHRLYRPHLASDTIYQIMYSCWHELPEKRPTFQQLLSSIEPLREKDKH

B1: GST-PH-Vav3 (other, UniProt Q9UKW4 400-502, looked up)
chain: RPQGDGEIRITTLDKHTKQERHIFLFDLAVIVCKRKGDNYEMKEIIDLQQYKIANNPTTDKENKKWSYGFYLIHTQGQNGLEFYCKTKDLKKKWLEQFEMALS
notes: domain: PH domain; also called PH-domain-Vav3; Vav3-PH-domain; not shown: GST tag
B2: HA-tagged mutant hPar1-7A (receptor, human, UniProt P25116 42-425, looked up)
chain: T2 sequence (looked up) with C337A, Q338A, R339A, Y340A, V341A, Y342A, S343A
notes: whole, on cells; Tested in lysates of transfected cells; also called HA-hPar1-7A; PAR1A7; not shown: HA tag

Assay [1] concerns the target B2. In words: cell lysates applied on GST-PH-Vav3. The method, then: GST fusion protein columns. Fusion proteins were purified from transformed Escherichia coli bacteria that had been stimulated with isopropyl-β-D-thio-galactopyranoside (IPTG) at a concentration of […]. Bacteria were lysed according to published procedures, and then immobilized on glutathione Sepharose beads (Pharmacia). Briefly, MDA-MB-435 cell lysates were applied to GST-PAR1C-tail or GST control columns. After 2 h binding periods to the designated protein/s cell lysates to the columns, a washing step was performed. The washes (×3) were carried out using a “wash buffer” including: 100 mM NaCL, 20 mM EDTA, 10 mM Tris, pH 8.0 and 1% Triton ×100. This step was performed in order to wash out all non-specific proteins, leaving the GST-PAR₁-C-tail column firmly bound to targeted cell lysate proteins. Next, elution of bound proteins was performed via the addition of gel “sample buffer” and appropriate boiling. The samples were run electrophoretically on SDS-PAGE gels, followed by immunoblotting with the indicated antibodies and ECL detection. GST-PH-Etk/Bmx. […]
(§1) Namely, without wishing to be bound by theory the PAR₁-C-tail appears to be an anchor region for association with PH-domain containing proteins. For this purpose, the association between Akt (which is ubiquitously expressed in the cells) and PAR₁ was analyzed, following activation. […]

In assay [2] the target is T1, wild-type protease-activated receptor 2 …. In words: cell lysates applied on GST immobilized PH-domain columns (PAR2).
Assay [3] addresses T2, HA-tagged wt hPar1. In words: lysates of cells transfected with HA-tag-hPar1 applied on GST-PH-Vav3. The method, then:
GST fusion protein columns. Fusion proteins were purified from transformed Escherichia coli bacteria that had been stimulated with isopropyl-β-D-thio-galactopyranoside (IPTG) at a concentration of […]. Bacteria were lysed according to published procedures, and then immobilized on glutathione Sepharose beads (Pharmacia). Briefly, MDA-MB-435 cell lysates were applied to GST-PAR1C-tail or GST control columns. After 2 h binding periods to the designated protein/s cell lysates to the columns, a washing step was performed. The washes (×3) were carried out using a “wash buffer” including: 100 mM NaCL, 20 mM EDTA, 10 mM Tris, pH 8.0 and 1% Triton ×100. This step was performed in order to wash out all non-specific proteins, leaving the GST-PAR₁-C-tail column firmly bound to targeted cell lysate proteins. Next, elution of bound proteins was performed via the addition of gel “sample buffer” and appropriate boiling. The samples were run electrophoretically on SDS-PAGE gels, followed by immunoblotting with the indicated antibodies and ECL detection. GST-PH-Etk/Bmx. The PH domain in Etk/Bmx was bound to GST column as previously described (Chen R, et al. (2001) Nat Cell Biol. 3: 439-444).
Next, a panel of cell-lines was transfected with HA-tag-hPar1. Cell lysates were prepared and applied onto GST-PH-Akt or GST-PH-Vav₃. […]

For assay [4], the target named is Akt (PKB) (UniProt P31749 1-480, limits assumed). Description: co-immunoprecipitation of Akt and PAR1 in transfected HU cells. The method, then: Western blot and immunoprecipitation analysis: Cells were activated with agonist peptide […] (SEQ ID NO: 35) for the indicated periods of time and solubilized in lysis buffer containing 10 mM Tris-HCl, pH 7.4, 150 mM NaCl, 1 mM EDTA, 1% TritonX-100, and protease inhibitors ([…] aprotinin, 1 mM phenylmethylsulfonylfluoride, and […] leupeptin) at 4° C. for 30 min. The cell lysates were subjected to centrifugation at 12,000 rpm at 4° C. for 20 min. We used 400 μg of the supernatants with anti-PAR₁ (ATAP, Santa Cruz, Calif. 1 μg), anti-HA (anti-HA sc-7392; Santa Cruz, Calif.), anti-Shc or Etk/Bmx antibodies (10 μg/ml). After overnight incubation, Protein A-Sepharose beads (Amersham Pharmacia Biotech, Buckinghamshire, UK) were added to the suspension (50 μl), which was rotated at 4° C. for 1 h. The immunocomplexes were eluted and run electrophoretically on a 10% SDS-PAGE gel, followed by transfer to an Immobilon-P membrane (Millipore). […] Immunoreactive bands were detected by enhanced chemiluminescence (ECL). […]
as §1

Assay [5] deals with T3, Etk/Bmx (epithelial tyrosine kinase), …. Description: co-immunoprecipitation with anti-HA, anti-Bmx blot, MCF7 clones after PAR1 activation. The method, then: After overnight incubation, Protein A-Sepharose beads (Amersham Pharmacia Biotech, Buckinghamshire, UK) were added to the suspension (50 μl), which was rotated at 4° C. for 1 h. The immunocomplexes were eluted and run electrophoretically on a 10% SDS-PAGE gel, followed by transfer to an Immobilon-P membrane (Millipore). Membranes were blocked and probed with 1 μg/ml amounts of the appropriate antibodies as follows: anti-PAR₁ thrombin receptor mAb, (ATAP, from Santa Cruz, 1:1000); anti-Shc (BD, 1:2000); anti-Bmx (Transduction Laboratories, 1:1000) or anti-PY (Upstate 4G10, 1:2500), suspended in 3% BSA in 10 mM Tris-HCl, pH 7.5, 100 mM NaCl, and 0.5% Tween-20. After washes the blots were incubated with secondary antibodies conjugated to horseradish-peroxidase. Immunoreactive bands were detected by enhanced chemiluminescence (ECL). Membranes were stripped and incubated with anti-IP antibodies to ensure equal protein load.
Based on the competition assay mutated hPar1 constructs with successive replacement of seven residues (378-384; CQRYVYS) were prepared. […] The clones expressing either HA-tagged wt hPar1 or a mutant construct of HA-hPar1-7A were activated and further analyzed for co-immunoprecipitation (IP) of PAR₁ with Etk/Bmx. […] The blots were detected by anti-Bmx (Transduction Laboratories, BD Biosciences, CA) for the identification of Etk/Bmx-associated PAR₁. […]

Sequence of Akt (PKB) (P31749 whole entry): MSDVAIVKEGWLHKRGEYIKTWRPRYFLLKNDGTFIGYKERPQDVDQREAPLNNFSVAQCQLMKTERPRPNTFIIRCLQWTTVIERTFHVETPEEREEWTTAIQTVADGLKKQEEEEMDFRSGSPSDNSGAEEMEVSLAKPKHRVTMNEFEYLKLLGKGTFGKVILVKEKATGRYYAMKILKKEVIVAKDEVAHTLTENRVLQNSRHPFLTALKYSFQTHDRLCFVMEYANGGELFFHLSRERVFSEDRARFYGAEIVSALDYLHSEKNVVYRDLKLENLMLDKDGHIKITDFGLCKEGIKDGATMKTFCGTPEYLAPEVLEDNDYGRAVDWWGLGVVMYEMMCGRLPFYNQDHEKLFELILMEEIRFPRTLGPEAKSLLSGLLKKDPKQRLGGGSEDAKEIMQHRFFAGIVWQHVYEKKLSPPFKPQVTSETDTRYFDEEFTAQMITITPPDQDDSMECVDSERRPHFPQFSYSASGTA

Take B1: the binding result in assay [1] is “no binding”; in assay [2], “binds”; in assay [3], “binds”.

As to B2, the binding result in assay [4] and in assay [5] was “no binding” each time.
